± gives the standard deviation of the averaged measurements.

The record followed here is the supplement of paper PMC11246515.

The nature of this series: total protein half-life in vivo (active degradation + dilution); higher = more stable protein.
The mark [1] stands for this setting: E. coli NCM3722 delta-clpP delta-lon delta-hslV, growth: N-lim chemostat, doubling time 6 h.
Where [2] appears, read: E. coli NCM3722 delta-clpP, growth: N-lim chemostat, doubling time 6 h.
[3] abbreviates: E. coli NCM3722 delta-hslV, growth: N-lim chemostat, doubling time 6 h.
Setting [4] is: E. coli NCM3722 delta-lon, growth: N-lim chemostat, doubling time 6 h.
Where [5] appears, read: E. coli NCM3722 delta-smpB, growth: N-lim chemostat, doubling time 6 h.
[6] abbreviates: wild type E. coli NCM3722, growth: C-lim chemostat, doubling time 3 h.
Setting [7] is: wild type E. coli NCM3722, growth: C-lim chemostat, doubling time 6 h.
The mark [8] stands for this setting: wild type E. coli NCM3722, growth: C-lim chemostat, doubling time 12 h.
Setting [9] is: wild type E. coli NCM3722, growth: N-lim chemostat, doubling time 6 h.
Setting [10] is: wild type E. coli NCM3722, growth: N-lim chemostat, doubling time 12 h.
Setting [11] is: wild type E. coli NCM3722, growth: P-lim chemostat, doubling time 6 h.
Where [12] appears, read: wild type E. coli NCM3722, growth: P-lim chemostat, doubling time 12 h.

In the case of “MASKFQNRLVGTIVLVALGVIVLPGLLDGQKKHYQDEFAAIPLVPKAGDRDEPDMMPAATQALPTQPPEGAAEEVRAGDAAAPSLDPATIAANNTEFEPEPAPVAPPKPKPVEPPKPKVEAPPAPKPEPKPVVEEKAAPTGKAYVVQLGALKNADKVNEIVGKLRGAGYRVYTSPSTPVQGKITRILVGPDASKDKLKGSLGELKQLSGLSGVVMGYTPN”, the “total protein half-life in vivo” value runs as follows: under setting [1], 4.2 ± 0.25 h; under setting [2], 5.15 ± 2.6 h; under setting [3], 3.72 ± 0.18 h; under setting [4], 3.63 ± 0.44 h; under setting [5], 3.52 ± 0.13 h; under setting [6], 2.45 ± 0.036 h. Also, the “total protein half-life in vivo” value under setting [7] is 3.46 ± 0.32 h; the “total protein half-life in vivo” value under setting [8] came to 6.92 ± 0.23 h; the “total protein half-life in vivo” value under setting [9] turned out to be 3.32 ± 0.14 h; the “total protein half-life in vivo” value under setting [10] turned out to be 5.77 ± 1.7 h; the “total protein half-life in vivo” value under setting [11] was found to be 2.83 ± 0.55 h; the “total protein half-life in vivo” value under setting [12] is 5.38 ± 0.026 h.
Consider “MATKLQDGNTPCLAATPSEPRPTVLVFDSGVGGLSVYDEIRHLLPDLHYIYAFDNVAFPYGEKSEAFIVERVVAIVTAVQERYPLALAVVACNTASTVSLPALREKFDFPVVGVVPAIKPAARLTANGIVGLLATRGTVKRSYTHELIARFANECQIEMLGSAEMVELAEAKLHGEDVSLDALKRILRPWLRMKEPPDTVVLGCTHFPLLQEELLQVLPEGTRLVDSGAAIARRTAWLLEHEAPDAKSADANIAFCMAMTPGAEQLLPVLQRYGFETLEKLAVLG”, for which the “total protein half-life in vivo” value under setting [1] was determined as 5.25 ± 0.28 h; the “total protein half-life in vivo” value under setting [2] is 4.4 ± 0.08 h; the “total protein half-life in vivo” value under setting [3] stood at 4.32 ± 0.48 h; the “total protein half-life in vivo” value under setting [4] turned out to be 4.74 ± 0.2 h; the “total protein half-life in vivo” value under setting [5] came to 4.44 ± 0.14 h; the “total protein half-life in vivo” value under setting [6] was determined as 3.22 ± 0.32 h. Besides, the “total protein half-life in vivo” value under setting [7] was 5.49 ± 0.17 h; the “total protein half-life in vivo” value under setting [9] was determined as 4.54 ± 0.11 h; the “total protein half-life in vivo” value under setting [10] was 7.85 ± 0.034 h; the “total protein half-life in vivo” value under setting [11] is 6.21 ± 0.3 h; the “total protein half-life in vivo” value under setting [12] is 12.2 ± 0.2 h.
Regarding “MSQNNPLRALLDKQDILLLDGAMATELEARGCNLADSLWSAKVLVENPELIREVHLDYYRAGAQCAITASYQATPAGFAARGLDEAQSKALIGKSVELARKAREAYLAENPQAGTLLVAGSVGPYGAYLADGSEYRGDYHCSVEAFQAFHRPRVEALLDAGADLLACETLPNFSEIEALAELLTAYPRARAWFSFTLRDSEHLSDGTPLRDVVALLAGYPQVVALGINCIALENTTAALQHLHGLTVLPLVVYPNSGEHYDAVSKTWHHHGEHCAQLADYLPQWQAAGARLIGGCCRTTPADIAALKARS”, the “total protein half-life in vivo” value reads like this: under setting [1], 6.94 ± 1.2 h; under setting [2], 4.714 ± 0.0092 h; under setting [3], 4.45 ± 0.15 h; under setting [4], 4.95 ± 0.14 h; under setting [5], 4.6036 ± 0.0045 h; under setting [6], 2.51 ± 0.23 h. For the same sequence, the “total protein half-life in vivo” value is, setting by setting: under setting [7], 5.009 ± 0.032 h; under setting [8], 8.67 ± 1.6 h; under setting [9], 5.31 ± 0.38 h; under setting [10], 8.64 ± 0.12 h; under setting [11], 6.15 ± 0.4 h; under setting [12], 13 ± 0.82 h.
As to “MSRIEAVFFDCDGTLVDSEVICSRAYVTMFQEFGITLDPEEVFKRFKGVKLYEIIDIVSLEHGVTLAKTEAEHVYRAEVARLFDSELEAIEGAGALLSAITAPMCVVSNGPNNKMQHSMGKLNMLHYFPDKLFSGYDIQRWKPDPALMFHAAKAMNVNVENCILVDDSVAGAQSGIDAGMEVFYFCADPHNKPIVHPKVTTFTHLSQLPELWKARGWDITA”, the “total protein half-life in vivo” value is, setting by setting: under setting [4], 2.73 h; under setting [6], 2.09 h; under setting [7], 4.76 h; under setting [8], 9.19 h; under setting [10], 2.64 h.
For “MRCKGFLFDLDGTLVDSLPAVERAWSNWARRHGLAPEEVLAFIHGKQAITSLRHFMAGKSEADIAAEFTRLEHIEATETEGITALPGAIALLSHLNKAGIPWAIVTSGSMPVARARHKIAGLPAPEVFVTAERVKRGKPEPDAYLLGAQLLGLAPQECVVVEDAPAGVLSGLAAGCHVIAVNAPADTPRLNEVDLVLHSLEQITVTKQPNGDVIIQ”, the “total protein half-life in vivo” value by setting is: under setting [1], 4.84 ± 0.48 h; under setting [2], 5.45 ± 1.7 h; under setting [3], 4.91 ± 0.61 h; under setting [4], 5.46 ± 0.45 h; under setting [5], 3.992 ± 0.0097 h; under setting [6], 3.06 ± 0.1 h. For the same sequence, the “total protein half-life in vivo” value under setting [7] was 6.07 ± 0.31 h; the “total protein half-life in vivo” value under setting [8] was 10.1 ± 0.43 h; the “total protein half-life in vivo” value under setting [9] turned out to be 4.54 ± 0.39 h; the “total protein half-life in vivo” value under setting [10] amounted to 6.8 ± 0.18 h; the “total protein half-life in vivo” value under setting [11] amounted to 5.77 ± 0.43 h; the “total protein half-life in vivo” value under setting [12] was found to be 11.4 ± 0.17 h.
Consider “MRSAQVYRWQIPMDAGVVLRDRRLKTRDGLYVCLREGEREGWGEISPLPGFSQETWEEAQSVLLAWVNNWLAGDCELPQMPSVAFGVSCALAELTDTLPQAANYRAAPLCNGDPDDLILKLADMPGEKVAKVKVGLYEAVRDGMVVNLLLEAIPDLHLRLDANRAWTPLKGQQFAKYVNPDYRDRIAFLEEPCKTRDDSRAFARETGIAIAWDESLREPDFAFVAEEGVRAVVIKPTLTGSLEKVREQVQAAHALGLTAVISSSIESSLGLTQLARIAAWLTPDTIPGLDTLDLMQAQQVRRWPGSTLPVVEVDALERLL”, for which the “total protein half-life in vivo” value under setting [3] was 3.779 ± 0.0063 h; the “total protein half-life in vivo” value under setting [4] turned out to be 4.33 ± 0.7 h; the “total protein half-life in vivo” value under setting [5] was found to be 3.7 ± 0.25 h; the “total protein half-life in vivo” value under setting [6] amounted to 3.25 ± 0.19 h; the “total protein half-life in vivo” value under setting [7] turned out to be 5.71 ± 0.44 h; the “total protein half-life in vivo” value under setting [8] turned out to be 13.2 h. Also, the “total protein half-life in vivo” value runs as follows: under setting [9], 3.88 ± 0.14 h; under setting [10], 6.68 ± 0.4 h; under setting [11], 5.7 ± 0.073 h; under setting [12], 11.5 ± 0.8 h.
On to “MDLTQLEMFNAVAEAGSITQAAAKVHRVPSNLTTRLRQLETELGVDLFIRENQRLRLSPAGHNFLRYSQQILALVDEARSVVAGDEPQGLFSLGSLESTAAVRIPATLAEFNRRYPKIQFSLSTGPSGTMLDGVLEGKLNAAFIDGPINHTAIDGIPVYREELMIVTPQGYAPVTRASQVNGSNIYAFRANCSYRRHFESWFHADGAAPGTIHEMESYHGMLACVIAGAGIALIPRSMLESMPGHHQVEAWPLAEQWRWLTTWLVWRRGAKTRPLEAFIQLLDVPDSARQGYQ”, for which the “total protein half-life in vivo” value is above 8 h under setting [1]; 5.2 h under setting [2]; 4.72 h under setting [3]; 4.66 h under setting [4]; 4.76 h under setting [5]; 2.76 h under setting [6]. The “total protein half-life in vivo” value runs as follows: under setting [8], 8.27 h; under setting [10], 12.1 ± 2.1 h; under setting [11], 6.44 ± 1 h; under setting [12], 10.7 ± 2.1 h.
